Measured values published in the supplement of paper PMC7125110.
± gives the standard error. Fewer inactive variants are shown than the library holds.

B1: glmS ribozyme (parent)
chain: AUAAAAGCGCCAGAACUACAGAAAUGUAGUUGACGAGGAGGAGGUUUAUCGAAUUUUCGGCGGAUGCCUCCAAA

Variants of: B1
Test: self-cleavage kobs at 640 uM GlcN6P; higher = faster cleavage; RNA array
Settings: with glucosamine-6-phosphate
In short: (§1)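 Barcoded glmS ribozyme variants on sequenced MiSeq chips were transcribed in situ by E. coli RNA polymerase and tracked through a hybridised Cy3 probe at 37 °C. Glucosamine-6-phosphate (40 μM to 10 mM) in HEPES/KCl/Mg(OAc)2 buffer was flowed in, and tiles were imaged over ~14 h. Signals were normalised to baseline and to non-cleaving reference variants; per-tile medians were fit to one- or two-exponential decays to give kobs. kcat and KM came from weighted Michaelis–Menten fits across concentrations.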

A33C G35C U49G G59C and G7C G38C A48C cannot be ordered by “self-cleavage kobs at 640 uM GlcN6P” value: under 1e-05 s⁻¹ for the first, under 1e-05 s⁻¹ for the second.

Going from A48U A53C C68G C71G to C11G C50A A52G, the “self-cleavage kobs at 640 uM GlcN6P” value falls from 9.77e-05 ± 3.4e-05 s⁻¹ to under 1e-05 s⁻¹.

Going from G44A U45G U49A C50G to U46G C50U C68G, the “self-cleavage kobs at 640 uM GlcN6P” value rises from under 1e-05 s⁻¹ to 5.83e-05 ± 2.6e-05 s⁻¹.

Going from G41A G44A G60A to G37A U54G U69A, the “self-cleavage kobs at 640 uM GlcN6P” value rises from under 1e-05 s⁻¹ to 0.000103 ± 2.5e-05 s⁻¹.

U49C U65C U69A and G9C A15C A64C C68G cannot be ordered by “self-cleavage kobs at 640 uM GlcN6P” value: under 1e-05 s⁻¹ for the first, under 1e-05 s⁻¹ for the second.

C11A G32U C70G and A39G U46C U47G U65A are within error of each other in “self-cleavage kobs at 640 uM GlcN6P” value: 0.000101 ± 4.4e-05 s⁻¹ for the first, 0.0001 ± 3.8e-05 s⁻¹ for the second.

Going from A36U U46C C50U C58U G59C C67A to C16U U55A C68G, the “self-cleavage kobs at 640 uM GlcN6P” value rises from under 1e-05 s⁻¹ to 8.37e-05 ± 1.4e-05 s⁻¹.

Compared with A6U G40C G44C C50U, C50G U57G G66U C70G is higher in “self-cleavage kobs at 640 uM GlcN6P” value: under 1e-05 s⁻¹ for the first, 0.000982 ± 0.0003 s⁻¹ for the second.

C16G G29A G40A A42C and C8G G41U A48U C70U cannot be ordered by “self-cleavage kobs at 640 uM GlcN6P” value: under 1e-05 s⁻¹ for the first, under 1e-05 s⁻¹ for the second.

First: C10G C11A U31C G35C C70G
Second: C10U A15C G43U G63U
The “self-cleavage kobs at 640 uM GlcN6P” value of the first is higher: 0.00013 ± 6.3e-05 s⁻¹ for the first, under 1e-05 s⁻¹ for the second.

First: U30C G32C C58A
Second: A15U G40C A52U
The “self-cleavage kobs at 640 uM GlcN6P” value of the first is higher: 3.93e-05 ± 1.5e-05 s⁻¹ for the first, under 1e-05 s⁻¹ for the second.

G9A G60A C68G and A12C G29C A42C cannot be ordered by “self-cleavage kobs at 640 uM GlcN6P” value: under 1e-05 s⁻¹ for the first, under 1e-05 s⁻¹ for the second.

Compared with C34U A64U G66C, G13C A14C C71U is higher in “self-cleavage kobs at 640 uM GlcN6P” value: under 1e-05 s⁻¹ for the first, 4.16e-05 ± 1.1e-05 s⁻¹ for the second.

Compared with C10A U69A, A39U A42C C50G is lower in “self-cleavage kobs at 640 uM GlcN6P” value: 0.00013 ± 1.9e-05 s⁻¹ for the first, under 1e-05 s⁻¹ for the second.

Going from G32A C58G C68U to A52U A53G G59C, the “self-cleavage kobs at 640 uM GlcN6P” value falls from 5.31e-05 ± 2.4e-05 s⁻¹ to under 1e-05 s⁻¹.

Compared with A12C A14G C34G G38U U49G A64G, U2A is higher in “self-cleavage kobs at 640 uM GlcN6P” value: under 1e-05 s⁻¹ for the first, 0.0236 ± 0.0098 s⁻¹ for the second.

Compared with G7C U69A C70U, A12G A39U A42C is higher in “self-cleavage kobs at 640 uM GlcN6P” value: under 1e-05 s⁻¹ for the first, 8.45e-05 ± 2.4e-05 s⁻¹ for the second.

G29C A33G G40A U56C and C11U G35U G44A cannot be ordered by “self-cleavage kobs at 640 uM GlcN6P” value: under 1e-05 s⁻¹ for the first, under 1e-05 s⁻¹ for the second.

Compared with A6G A14U C16G U56A, A15U C50G G66C C71G is higher in “self-cleavage kobs at 640 uM GlcN6P” value: under 1e-05 s⁻¹ for the first, 7.22e-05 ± 2.8e-05 s⁻¹ for the second.

U30G A33C G40C U54A A64C and G35U U57A cannot be ordered by “self-cleavage kobs at 640 uM GlcN6P” value: under 1e-05 s⁻¹ for the first, under 1e-05 s⁻¹ for the second.

Compared with C10U G35C G62C, A15C C16U U45A is higher in “self-cleavage kobs at 640 uM GlcN6P” value: under 1e-05 s⁻¹ for the first, 0.000911 ± 0.00018 s⁻¹ for the second.

First: C11A A39G
Second: A14G U30G A64G
The “self-cleavage kobs at 640 uM GlcN6P” value of the first is 46-fold lower: 0.000101 ± 2.7e-05 s⁻¹ for the first, 0.00462 ± 0.0017 s⁻¹ for the second.

First: G40U U46C A53U
Second: G29A G40A A64G
The “self-cleavage kobs at 640 uM GlcN6P” value of the first is 6.4-fold higher: 0.000351 ± 0.00012 s⁻¹ for the first, 5.47e-05 ± 1.8e-05 s⁻¹ for the second.

Compared with G13A C16G A36C G41U A52U, A39U A42G U65G is higher in “self-cleavage kobs at 640 uM GlcN6P” value: under 1e-05 s⁻¹ for the first, 0.000684 ± 0.00016 s⁻¹ for the second.

A33G G43U G59U A64G and G38A G40U U65C cannot be ordered by “self-cleavage kobs at 640 uM GlcN6P” value: under 1e-05 s⁻¹ for the first, under 1e-05 s⁻¹ for the second.

G32U A42C C58U and U30A A33G A36C cannot be ordered by “self-cleavage kobs at 640 uM GlcN6P” value: under 1e-05 s⁻¹ for the first, under 1e-05 s⁻¹ for the second.

Going from A6U G35C C68G C70U to U31G G35U A36G U47A A64G C68U C71G, the “self-cleavage kobs at 640 uM GlcN6P” value falls from 0.000713 ± 0.00023 s⁻¹ to 9.41e-05 ± 3.3e-05 s⁻¹ (7.6-fold).

Compared with C16U A39G A42U U47A, G7U G32C G38C A42U C50U is lower in “self-cleavage kobs at 640 uM GlcN6P” value: 5.33e-05 ± 2.6e-05 s⁻¹ for the first, under 1e-05 s⁻¹ for the second.

Going from G13U A15G G51C to A12C U31C A39G, the “self-cleavage kobs at 640 uM GlcN6P” value rises from under 1e-05 s⁻¹ to 0.000185 ± 3.9e-05 s⁻¹.

G37U A42C U56G and G29A U47G A53G C61U U65A cannot be ordered by “self-cleavage kobs at 640 uM GlcN6P” value: under 1e-05 s⁻¹ for the first, under 1e-05 s⁻¹ for the second.

For A6G A14C G38U, the “self-cleavage kobs at 640 uM GlcN6P” value was under 1e-05 s⁻¹.

Variants of: B1
Test: self-cleavage kobs at 2500 uM GlcN6P; higher = faster cleavage; RNA array
Settings: with glucosamine-6-phosphate
In short: as §1

A33C G35C U49G G59C and G7C G38C A48C cannot be ordered by “self-cleavage kobs at 2500 uM GlcN6P” value: under 1e-05 s⁻¹ for the first, under 1e-05 s⁻¹ for the second.

Compared with G44A U45G U49A C50G, G37A U54G U69A is higher in “self-cleavage kobs at 2500 uM GlcN6P” value: under 1e-05 s⁻¹ for the first, 5.96e-05 ± 2.2e-05 s⁻¹ for the second.

First: U49C U65C U69A
Second: C16U U55A C68G
The “self-cleavage kobs at 2500 uM GlcN6P” value of the first is lower: under 1e-05 s⁻¹ for the first, 3.34e-05 ± 1e-05 s⁻¹ for the second.

Compared with A6U G40C G44C C50U, C50G U57G G66U C70G is higher in “self-cleavage kobs at 2500 uM GlcN6P” value: under 1e-05 s⁻¹ for the first, 0.000139 ± 4.9e-05 s⁻¹ for the second.

C16G G29A G40A A42C and C10U A15C G43U G63U cannot be ordered by “self-cleavage kobs at 2500 uM GlcN6P” value: under 1e-05 s⁻¹ for the first, under 1e-05 s⁻¹ for the second.

First: G13C A14C C71U
Second: C10A U69A
The “self-cleavage kobs at 2500 uM GlcN6P” value of the first is 2.7-fold higher: 0.000105 ± 1.7e-05 s⁻¹ for the first, 3.89e-05 ± 1.5e-05 s⁻¹ for the second.

First: G32A C58G C68U
Second: A52U A53G G59C
The “self-cleavage kobs at 2500 uM GlcN6P” value of the first is higher: 8.37e-05 ± 2.3e-05 s⁻¹ for the first, under 1e-05 s⁻¹ for the second.

Going from A12C A14G C34G G38U U49G A64G to A12G A39U A42C, the “self-cleavage kobs at 2500 uM GlcN6P” value rises from under 1e-05 s⁻¹ to 0.000119 ± 2.7e-05 s⁻¹.

First: C11U G35U G44A
Second: A15U C50G G66C C71G
The “self-cleavage kobs at 2500 uM GlcN6P” value of the first is lower: under 1e-05 s⁻¹ for the first, 9.27e-05 ± 3e-05 s⁻¹ for the second.

U30G A33C G40C U54A A64C and C10U G35C G62C cannot be ordered by “self-cleavage kobs at 2500 uM GlcN6P” value: under 1e-05 s⁻¹ for the first, under 1e-05 s⁻¹ for the second.

Going from A15C C16U U45A to C11A A39G, the “self-cleavage kobs at 2500 uM GlcN6P” value falls from 0.00147 ± 0.00058 s⁻¹ to 0.000121 ± 2.7e-05 s⁻¹ (12-fold).

Compared with A14G U30G A64G, G29A G40A A64G is 89-fold lower in “self-cleavage kobs at 2500 uM GlcN6P” value: 0.00995 ± 0.0044 s⁻¹ for the first, 0.000112 ± 2.1e-05 s⁻¹ for the second.

A33G G43U G59U A64G and G32U A42C C58U cannot be ordered by “self-cleavage kobs at 2500 uM GlcN6P” value: under 1e-05 s⁻¹ for the first, under 1e-05 s⁻¹ for the second.

Going from C16U A39G A42U U47A to G13U A15G G51C, the “self-cleavage kobs at 2500 uM GlcN6P” value falls from 0.000115 ± 1.9e-05 s⁻¹ to under 1e-05 s⁻¹.

In the case of A12C U31C A39G, the “self-cleavage kobs at 2500 uM GlcN6P” value is reported as 0.00135 ± 0.00023 s⁻¹.

Variants of: B1
Test: self-cleavage kobs at 10000 uM GlcN6P; higher = faster cleavage; RNA array
Settings: with glucosamine-6-phosphate
In short: as §1

First: C16U U55A C68G
Second: A39U A42C C50G
The “self-cleavage kobs at 10000 uM GlcN6P” value of the first is higher: 7.42e-05 ± 1.8e-05 s⁻¹ for the first, under 1e-05 s⁻¹ for the second.

First: G35U U57A
Second: C11A A39G
The “self-cleavage kobs at 10000 uM GlcN6P” value of the first is lower: under 1e-05 s⁻¹ for the first, 0.000422 ± 7.8e-05 s⁻¹ for the second.

Going from G40U U46C A53U to A12C U31C A39G, the “self-cleavage kobs at 10000 uM GlcN6P” value rises from 0.000745 ± 0.00019 s⁻¹ to 0.00124 ± 0.00028 s⁻¹ (1.7-fold).

In the case of A6G A14C G38U, the “self-cleavage kobs at 10000 uM GlcN6P” value is reported as under 1e-05 s⁻¹.
